Assay results as given in doi:10.1101/2020.01.17.910273, “Ribosome association primes the stringent factor Rel for recruitment of deacylated tRNA to ribosomal A-site”.

Legend:
Test in all cases: EMSA; EMSA: HEPES:Polymix buffer, 5 mM Mg2+, 0.1 uM tRNA or mRNA(MVF), with or without 1 uM mRNA(MVF) competitor, 5 min at 37 C; pH not in material
Conditions in all cases: protein: recombinant; single strand
Rel NTD = Rel NTD (Bacillus subtilis, UniProt O54408 1-373)
Rel TGS-Helical = Rel TGS-Helical (Bacillus subtilis, UniProt O54408 374-583)
Rel = Rel (Bacillus subtilis, UniProt O54408 1-734)
Rel, sequence (O54408 whole entry): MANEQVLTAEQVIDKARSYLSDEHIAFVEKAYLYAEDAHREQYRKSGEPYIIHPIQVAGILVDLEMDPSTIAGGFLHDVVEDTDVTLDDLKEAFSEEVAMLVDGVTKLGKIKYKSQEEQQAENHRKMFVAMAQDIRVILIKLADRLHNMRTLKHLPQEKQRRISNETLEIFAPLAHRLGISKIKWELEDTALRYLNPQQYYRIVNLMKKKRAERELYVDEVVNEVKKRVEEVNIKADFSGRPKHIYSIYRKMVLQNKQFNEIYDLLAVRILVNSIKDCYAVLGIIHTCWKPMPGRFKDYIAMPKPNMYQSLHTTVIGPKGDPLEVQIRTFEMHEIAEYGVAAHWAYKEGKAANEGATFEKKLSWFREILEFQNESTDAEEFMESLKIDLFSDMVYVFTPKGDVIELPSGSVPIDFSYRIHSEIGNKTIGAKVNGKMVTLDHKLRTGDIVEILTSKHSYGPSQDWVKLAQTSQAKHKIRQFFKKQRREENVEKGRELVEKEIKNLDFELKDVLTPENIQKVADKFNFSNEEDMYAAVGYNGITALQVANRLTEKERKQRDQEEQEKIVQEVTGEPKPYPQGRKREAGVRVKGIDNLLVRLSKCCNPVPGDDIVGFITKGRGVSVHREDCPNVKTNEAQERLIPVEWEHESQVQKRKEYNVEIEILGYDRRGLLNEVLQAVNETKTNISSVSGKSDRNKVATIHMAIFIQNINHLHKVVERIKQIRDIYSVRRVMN

Rel NTD, sequence (O54408 1-373): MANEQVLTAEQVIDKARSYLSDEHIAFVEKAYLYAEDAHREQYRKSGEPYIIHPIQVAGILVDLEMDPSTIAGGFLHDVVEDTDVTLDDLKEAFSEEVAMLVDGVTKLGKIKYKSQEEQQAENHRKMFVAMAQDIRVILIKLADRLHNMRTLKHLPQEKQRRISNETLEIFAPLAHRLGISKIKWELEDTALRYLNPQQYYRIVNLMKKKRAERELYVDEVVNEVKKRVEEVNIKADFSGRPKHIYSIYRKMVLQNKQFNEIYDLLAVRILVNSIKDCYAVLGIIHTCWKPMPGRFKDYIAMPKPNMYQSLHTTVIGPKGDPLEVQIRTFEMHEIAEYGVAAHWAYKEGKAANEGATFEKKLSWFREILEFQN
Rel TGS-Helical, sequence (O54408 374-583): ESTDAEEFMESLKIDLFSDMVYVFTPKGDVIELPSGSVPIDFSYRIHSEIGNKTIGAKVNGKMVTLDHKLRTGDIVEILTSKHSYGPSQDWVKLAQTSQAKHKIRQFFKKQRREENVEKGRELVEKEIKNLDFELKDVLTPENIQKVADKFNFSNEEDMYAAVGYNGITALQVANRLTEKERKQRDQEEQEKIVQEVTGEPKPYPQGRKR

With GGCAAGGAGGAGAUAAGAAUGGUUUUCUAAUA (ssRNA) [mRNA(MVF)] the “apparent K (half saturation)” value (Rel NTD) was 680 ± 30 nM, the binding result (Rel TGS-Helical) was “no binding” and the “apparent K (half saturation)” value (Rel) was 490 ± 10 nM.
